Target: CD19 (UniProt P15391)
Assay: cell-based or functional assay

## CD19R:CD28:z(CO) CAR with L235E and N297Q in the IgG4 spacer (CD19R(EQ))
  intracellular IFNγ staining, percent of T cells: 30%
